# In patent US20220289816A1, “IMMUNOTHERAPY WITH B*07 RESTRICTED PEPTIDES AND COMBINATION OF PEPTIDES AGAINST CANCERS AND RELATED METHODS” (Immatics Biotechnologies GmbH, priority 2018, published 2022):
# Molecular target: HLA-B*07 (Homo sapiens, UniProt P01889)
# Assay: MHC binding assay (UV-ligand exchange, ELISA of stabilized MHC complexes)
# Conditions: peptide exchange yield on HLA-B*07, UV-ligand exchange
# Summary of the method: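 Peptide–MHC complexes were made by UV-ligand exchange, in which a UV-cleavable peptide is replaced by the test peptide. Exchange yield was measured by ELISA of stabilized complexes on streptavidin-coated plates, using HRP anti-β2m detection (1 h, 37 °C), TMB substrate and absorbance at 450 nm.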
row,Peptide exchange,Substance
1,++ (>20% = ++),357 (LPPHIFAI; listed as Homo sapiens) [compound 357]
2,+++ (>50 = +++),358 (APSMLRKNQL; listed as Homo sapiens) [compound 358]
3,++++ (>75% = ++++),359 (SPRRLVELAGQSL; listed as Homo sapiens) [compound 359]
4,++++ (>75% = ++++),360 (SPASRSISLL; listed as Homo sapiens) [compound 360]
5,+++ (>50 = +++),362 (KPMLPPAAF; listed as Homo sapiens) [compound 362]
6,++++ (>75% = ++++),363 (KPRTPFTTA; listed as Homo sapiens) [compound 363]
7,++++ (>75% = ++++),367 (APQVHIFSL; listed as Homo sapiens) [compound 367]
8,++++ (>75% = ++++),368 (NPASRLTAL; listed as Homo sapiens) [compound 368]
9,++++ (>75% = ++++),369 (RPYGCVLRAA; listed as Homo sapiens) [compound 369]
10,++ (>20% = ++),370 (AAHEFGHVL; listed as Homo sapiens) [compound 370]
11,+++ (>50 = +++),371 (APRSPGQVTPRGL; listed as Homo sapiens) [compound 371]
12,++++ (>75% = ++++),372 (SPSSASLTL; listed as Homo sapiens) [compound 372]
13,+ (>10% = +),373 (LPKPDLPQLI; listed as Homo sapiens) [compound 373]
14,++++ (>75% = ++++),374 (KPRNMTGLDL; listed as Homo sapiens) [compound 374]
15,++++ (>75% = ++++),375 (LPRGVLEGL; listed as Homo sapiens) [compound 375]
16,++++ (>75% = ++++),376 (FPQVGRTAL; listed as Homo sapiens) [compound 376]
17,+++ (>50 = +++),377 (SPFSKRIKL; listed as Homo sapiens) [compound 377]
18,++++ (>75% = ++++),378 (SPRQPRLDF; listed as Homo sapiens) [compound 378]
19,++++ (>75% = ++++),379 (GPRQVLFPL; listed as Homo sapiens) [compound 379]
20,++++ (>75% = ++++),380 (SPYPGSAAF; listed as Homo sapiens) [compound 380]
21,+++ (>50 = +++),381 (APRPRLLLL; listed as Homo sapiens) [compound 381]
22,++++ (>75% = ++++),382 (RPGPQRTTSV; listed as Homo sapiens) [compound 382]
23,+++ (>50 = +++),383 (KPRATWTLKL; listed as Homo sapiens) [compound 383]
24,++ (>20% = ++),448 (TVYGEPRKL; listed as Homo sapiens) [compound 448]
25,++++ (>75% = ++++),449 (RPKTSVNLISSL; listed as Homo sapiens) [compound 449]

row,Peptide exchange,Substance
1,+ (>10% = +),450 (SAAARALLP; listed as Homo sapiens) [compound 450]
2,++++ (>75% = ++++),451 (VPILPLNHAL; listed as Homo sapiens) [compound 451]
3,++++ (>75% = ++++),452 (QPVKKNTL; listed as Homo sapiens) [compound 452]
4,++++ (>75% = ++++),453 (APALPGQVTI; listed as Homo sapiens) [compound 453]
5,++++ (>75% = ++++),454 (SPDPAHLESL; listed as Homo sapiens) [compound 454]
6,++++ (>75% = ++++),455 (FPVQATIDF; listed as Homo sapiens) [compound 455]
7,+++ (>50 = +++),456 (VPVSHPVLTL; listed as Homo sapiens) [compound 456]
8,++++ (>75% = ++++),457 (RPPLSQRHTF; listed as Homo sapiens) [compound 457]
9,++++ (>75% = ++++),458 (VPIPTHYFVVL; listed as Homo sapiens) [compound 458]
10,++++ (>75% = ++++),459 (SPAPWRPWI; listed as Homo sapiens) [compound 459]
11,++++ (>75% = ++++),460 (APLMPLGKTL; listed as Homo sapiens) [compound 460]
12,++++ (>75% = ++++),461 (MPHLGPGILL; listed as Homo sapiens) [compound 461]
13,++++ (>75% = ++++),462 (MPLLADVRL; listed as Homo sapiens) [compound 462]
14,++++ (>75% = ++++),463 (LPTDLFNSVM; listed as Homo sapiens) [compound 463]
15,+++ (>50 = +++),464 (VPFVPRTSV; listed as Homo sapiens) [compound 464]
16,++++ (>75% = ++++),465 (VPKSLPYVL; listed as Homo sapiens) [compound 465]
17,++++ (>75% = ++++),466 (SPMEAILVSRL; listed as Homo sapiens) [compound 466]
18,++++ (>75% = ++++),467 (VPRNQDWLGVSRQL; listed as Homo sapiens) [compound 467]
19,++++ (>75% = ++++),468 (LPSLHVLVL; listed as Homo sapiens) [compound 468]
20,++++ (>75% = ++++),469 (LPLDTRTSI; listed as Homo sapiens) [compound 469]
21,++++ (>75% = ++++),470 (RPNGEVKSEL; listed as Homo sapiens) [compound 470]
22,++ (>20% = ++),471 (LPLLAGTLLL; listed as Homo sapiens) [compound 471]
23,++ (>20% = ++),472 (LPMPAITWY; listed as Homo sapiens) [compound 472]
24,++++ (>75% = ++++),473 (LPGEREAAL; listed as Homo sapiens) [compound 473]
25,++++ (>75% = ++++),474 (VPKADLLTL; listed as Homo sapiens) [compound 474]

row,Peptide exchange,Substance
1,+ (>10% = +),475 (IPLEIQKL; listed as Homo sapiens) [compound 475]
2,++ (>20% = ++),476 (EPNPVEEIF; listed as Homo sapiens) [compound 476]
3,++++ (>75% = ++++),477 (NPVPVITWYKDNRL; listed as Homo sapiens) [compound 477]
4,++++ (>75% = ++++),478 (APKFISPASQL; listed as Homo sapiens) [compound 478]
5,++++ (>75% = ++++),479 (APHAGGALL; listed as Homo sapiens) [compound 479]
6,+++ (>50 = +++),480 (VPAAPTKAL; listed as Homo sapiens) [compound 480]
7,+++ (>50 = +++),481 (SPARALLLALA; listed as Homo sapiens) [compound 481]
8,++++ (>75% = ++++),482 (QPSLKKIIL; listed as Homo sapiens) [compound 482]
9,+++ (>50 = +++),483 (KPAAAGVKKVA; listed as Homo sapiens) [compound 483]
10,++ (>20% = ++),484 (LPASAEPKGTM; listed as Homo sapiens) [compound 484]
11,++ (>20% = ++),486 (TPTRPLPSA; listed as Homo sapiens) [compound 486]
12,++++ (>75% = ++++),487 (IPWFIKTAF; listed as Homo sapiens) [compound 487]
13,+++ (>50 = +++),488 (LPLGGLPLLI; listed as Homo sapiens) [compound 488]
14,++++ (>75% = ++++),489 (WPNHIMLVL; listed as Homo sapiens) [compound 489]
15,++++ (>75% = ++++),490 (APRGPAQGEAA; listed as Homo sapiens) [compound 490]
16,++ (>20% = ++),491 (MPEADLKRIF; listed as Homo sapiens) [compound 491]
17,+ (>10% = +),492 (IPFSVDEI; listed as Homo sapiens) [compound 492]
18,+ (>10% = +),493 (LPLQQYKLV; listed as Homo sapiens) [compound 493]
19,+++ (>50 = +++),494 (LPLRAVNLNL; listed as Homo sapiens) [compound 494]
20,++++ (>75% = ++++),495 (SPSYTQASL; listed as Homo sapiens) [compound 495]
21,+++ (>50 = +++),496 (MPAVSGPGPLF; listed as Homo sapiens) [compound 496]
22,+++ (>50 = +++),497 (YVVKPLHPF; listed as Homo sapiens) [compound 497]
23,++++ (>75% = ++++),498 (RPQPQPRPAL; listed as Homo sapiens) [compound 498]
24,++++ (>75% = ++++),499 (QPVLPSPAC; listed as Homo sapiens) [compound 499]
